Reference: US20170355769A1 (AbbVie / Abbott, published 2017)
Changes are numbered by the printed parent chain.

T1: Human full length B7-H3 (human, UniProt Q5ZPR3 29-534)
T1 construct: On 3T12 fibroblasts expressing full length human B7-H3 or on NCI-H1650 cells; signal peptide residues 1-28 stated; also called huB7-H3; CD276
T1 sequence: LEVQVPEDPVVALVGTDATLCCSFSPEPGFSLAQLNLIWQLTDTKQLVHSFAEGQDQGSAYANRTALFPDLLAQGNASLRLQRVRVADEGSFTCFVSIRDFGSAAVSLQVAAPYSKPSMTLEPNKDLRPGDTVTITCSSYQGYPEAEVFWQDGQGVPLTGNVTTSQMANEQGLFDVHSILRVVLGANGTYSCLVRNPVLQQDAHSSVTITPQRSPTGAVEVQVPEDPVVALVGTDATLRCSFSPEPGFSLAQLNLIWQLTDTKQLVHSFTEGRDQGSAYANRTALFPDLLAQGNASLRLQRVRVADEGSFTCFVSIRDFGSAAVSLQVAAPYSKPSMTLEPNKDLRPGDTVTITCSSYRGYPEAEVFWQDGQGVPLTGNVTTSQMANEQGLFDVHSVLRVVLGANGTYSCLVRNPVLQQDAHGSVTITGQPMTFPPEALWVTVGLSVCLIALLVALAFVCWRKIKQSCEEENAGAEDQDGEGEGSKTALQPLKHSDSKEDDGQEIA

T2: hB7-H3 (ELISA antigen of Tables 17 and 20) (human, UniProt Q5ZPR3 29-466, limits assumed)
T2 sequence: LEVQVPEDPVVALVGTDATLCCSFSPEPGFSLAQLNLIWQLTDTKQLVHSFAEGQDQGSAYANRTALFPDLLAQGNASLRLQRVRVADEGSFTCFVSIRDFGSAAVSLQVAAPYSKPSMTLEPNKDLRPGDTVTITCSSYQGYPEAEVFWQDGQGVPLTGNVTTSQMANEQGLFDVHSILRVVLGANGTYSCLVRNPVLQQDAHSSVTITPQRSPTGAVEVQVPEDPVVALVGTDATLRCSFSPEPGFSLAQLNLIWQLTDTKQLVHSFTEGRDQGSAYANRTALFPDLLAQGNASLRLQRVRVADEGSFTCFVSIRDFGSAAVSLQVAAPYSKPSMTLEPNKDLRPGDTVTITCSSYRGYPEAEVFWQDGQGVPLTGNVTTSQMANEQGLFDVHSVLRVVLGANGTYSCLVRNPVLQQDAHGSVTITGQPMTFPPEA

B1: huAb3v2-CZ (antibody, V domains shown)
VH: EVQLVQSGAEVKKPGSSVKVSCKASGYTFSSYWMHWVRQAPGQGLEWIGLIHPDSGSTNYNEMFKNRATLTVDRSTSTAYMELSSLRSEDTAVYYCAGGGRLYFDYWGQGTTVTVSS
VL: DIVMTQSPLSLPVTPGEPASISCRSSQSLVHSNGDTYLRWYLQKPGQSPQLLIYKVSNRFSGVPDRFSGSGSGTDFTLKISRVEAEDVGVYYCSQSTHVPYTFGGGTKVEIK
modifications: synthon CZ on reduced interchain Cys
B2: huAb3v2.6-CZ (antibody, human IgG1, kappa, L234A L235A, V domains shown)
VH: B1 VH with D54E
VL: DIVMTQSPLSLPVTPGEPASISCRSSQSLVHSNQDTYLRWYLQKPGQSPQLLIYKVSNRFSGVPDRFSGSGSGTDFTLKISRVEAEDVGVYYCSQSTHVPYTFGGGTKVEIKR
modifications: synthon CZ on reduced interchain Cys
B3: huAb3v2.2-CZ (antibody, V domains shown)
VH: B1 VH with D54W
VL: B1 VL with G34R
modifications: synthon CZ on reduced interchain Cys
notes: ADC, DAR 0.7
B4: huAb3v2.8-CZ (antibody, V domains shown)
VH: B1 VH with D54I
VL: B1 VL with G34R
modifications: synthon CZ on reduced interchain Cys
notes: ADC, DAR 2.0
B5: huAb3v2.9-CZ (antibody, V domains shown)
VH: B1 VH with D54I
VL: B1 VL with G34Q
modifications: synthon CZ on reduced interchain Cys
notes: ADC, DAR 2.7
B6: huAb3v2.3-CZ (antibody, V domains shown)
VH: B1 VH with D54W
VL: B1 VL with G34Q
modifications: synthon CZ on reduced interchain Cys
notes: ADC, DAR 1.1
B7: huAb13v1-CZ (antibody, human IgG1, kappa, L234A L235A, V domains shown)
VH: EVQLQESGPGLVKPSETLSLTCAVTGYSITSGYSWHWIRQFPGNGLEWMGYIHSSGSTNYNPSLKSRISISRDTSKNQFFLKLSSVTAADTAVYYCAGYDDYFEYWGQGTTVTVSS
VL: DIQMTQSPSSLSASVGDRVTITCKASQNVGFNVAWYQQKPGKSPKALIYSASYRYSGVPSRFSGSGSGTDFTLTISSLQPEDFAEYFCQQYNWYPFTFGQGTKLEIKR
modifications: synthon CZ on reduced interchain Cys
notes: ADC, DAR 4.0
B8: huAb13v6-CZ (antibody, V domains shown)
VH: B7 VH
VL: DIQMTQSPSSLSASVGDRVTITCKASQNVGFNVAWYQQKPGKAPKLLIYSASYRYSGVPSRFSGSGSGTDFTLTISSLQPEDFATYFCQQYNWYPFTFGQGTKLEIK
modifications: synthon CZ on reduced interchain Cys
notes: ADC, DAR 3.6
B9: huAb13v5-CZ (antibody, V domains shown)
VH: B7 VH
VL: B8 VL with F87Y
modifications: synthon CZ on reduced interchain Cys
notes: ADC, DAR 3.4
B10: chAb13-CZ (antibody, IgG1, V domains shown)
VH: DVQLQESGPDLVKPSQSLSLTCTVTGYSITSGYSWHWIRQFPGNKLEWMGYIHSSGSTNYNPSLKSRISINRDTSKNQFFLQLNSVTTEDTATYYCAGYDDYFEYWGQGTTLTVSS
VL: DIVMTQSQKFMSTSVGDRVSVTCKASQNVGFNVAWYQQKPGQSPKALIYSASYRYSGVPDRFTGSGSGTDFTLTISNVQSEDLAEYFCQQYNSYPFTFGSGTKLEIK
modifications: synthon CZ on reduced interchain Cys
B11: huAb3v2.9 (antibody, V domains shown)
VH: B1 VH with D54I
VL: B1 VL with G34Q
notes: humanized IgG
B12: huAb3v2.8 (antibody, V domains shown)
VH: B1 VH with D54I
VL: B1 VL with G34R
notes: humanized IgG
B13: huAb3v2.2 (antibody, V domains shown)
VH: B1 VH with D54W
VL: B1 VL with G34R
notes: humanized IgG
B14: huAb3v2.3 (antibody, V domains shown)
VH: B1 VH with D54W
VL: B1 VL with G34Q
notes: humanized IgG
B15: huAb13v9 (antibody, V domains shown)
VH: B7 VH with T25S, F41P, S69T, F80S, G98R
VL: B8 VL
notes: humanized IgG
B16: huAb13v2 (antibody, V domains shown)
VH: B7 VH with T25S, F41P, N44K, M49I, I68V, S69T, R72V, F80S, G98R
VL: B8 VL with F87Y
notes: humanized IgG
B17: huAb13v8 (antibody, V domains shown)
VH: B7 VH with T25S, F41P, S69T, F80S, G98R
VL: B8 VL with A43S, L46A, T85E
notes: humanized IgG
B18: huAb13v7 (antibody, V domains shown)
VH: B7 VH with T25S, F41P, S69T, F80S, G98R
VL: B8 VL with F87Y
notes: humanized IgG
B19: huAb13v4 (antibody, V domains shown)
VH: B7 VH with T25S, F41P, N44K, M49I, I68V, S69T, R72V, F80S, G98R
VL: B8 VL
notes: humanized IgG
B20: huAb13v3 (antibody, V domains shown)
VH: B7 VH with T25S, F41P, N44K, M49I, I68V, S69T, R72V, F80S, G98R
VL: B8 VL with A43S, L46A, T85E
notes: humanized IgG

Each binder was assayed against T1, Human full length B7-H3 (assay: FACS (Example 6 method)).
Procedure: (§1) Cells were harvested from flasks when approximately 80% confluent using Gibco® Cell Dissociation Buffer. Cells were washed once in PBS/1% FBS (FACS buffer) then resuspended at 2.5×10⁶ cells/mL in FACS buffer. 100 μL of cells/well were added to a round bottom 96-well plate. 10 μL of a 10× concentration of mAb/ADC (final concentrations are indicated the figures). Wells were washed twice with FACS buffer and resuspended in 50 μL of secondary Ab (AlexaFluor 488) diluted in FACS buffer. The plate was incubated at 4° C. for one hour and washed twice with FACS buffer. Cells were resuspended in 100 μL of PBS/1% formaldehyde and analyzed on a Becton Dickinson LSRII flow cytometer. Data was analyzed using WinList flow cytometry analysis software.
These variants were further characterized for binding by SPR and as ADCs conjugated to the Bcl-xL inhibitor synthon (linker warhead) CZ. […] An ADC comprising chAb3 conjugated to synthon CZ was used as a control.

With B1 as the binder, how does the EC50 read?
Its EC50 is 0.73 nM.

These binders were tested against T2, hB7-H3 (ELISA antigen of Tables 17 and …) (assay: ELISA).

How did the EC50 turn out when B2 was run?
The EC50 was 0.09 nM.

How did the EC50 turn out when B3 was run?
Its EC50 is 0.1 nM.

B1 was tested. Which EC50 did it give?
Its EC50 is 0.44 nM.

With B4 as the binder, how does the EC50 read?
Its EC50 is 0.14 nM.

B5 was tested. Which EC50 did it give?
The EC50 was 0.16 nM.

With B6 as the binder, how does the EC50 read?
Its EC50 is 0.11 nM.

The binders below were run against T1, Human full length B7-H3 (assay: FACS, 3T12 transfectants).

Which EC50 does the source give for B2 here?
Its EC50 is 5.64 nM.

Which EC50 does the source give for B3 here?
Its EC50 is 5.29 nM.

For B1, which EC50 is on record?
The EC50 was 5.11 nM.

For B4, which EC50 is on record?
The EC50 was 3.94 nM.

Which EC50 does the source give for B5 here?
The EC50 was 6.16 nM.

B6 was tested. Which EC50 did it give?
The EC50 was 6.5 nM.

What follows are binders tested against T3, Cynomolgous B7-H3 on cells (cynomolgus) (assay: FACS, 3T12 transfectants).
T3 construct: whole, on cells; also called cyB7-H3; cyno B7-H3

With B2 as the binder, how does the EC50 read?
The EC50 was 3.31 nM.

B3 was tested. Which EC50 did it give?
The EC50 was 3.68 nM.

Which EC50 does the source give for B1 here?
The EC50 was 2.87 nM.

Which EC50 does the source give for B4 here?
Its EC50 is 3.01 nM.

How did the EC50 turn out when B5 was run?
Its EC50 is 4.64 nM.

B6 was tested. Which EC50 did it give?
The EC50 was 4.03 nM.

Biological target: T2, hB7-H3 (ELISA antigen of Tables 17 and …)
Experiment: ELISA
Remark: another data set of the same source

How did the EC50 turn out when B7 was run?
The EC50 was 0.12 nM.

With B8 as the binder, how does the EC50 read?
The EC50 was 0.14 nM.

For B9, which EC50 is on record?
Its EC50 is 0.19 nM.

With B10 as the binder, how does the EC50 read?
Its EC50 is 0.26 nM.

Biological target: T1, Human full length B7-H3
Experiment: FACS, 3T12 transfectants
Remark: another data set of the same source

Does B11 bind?
Result: binds

Does B12 bind?
Result: binds

Does B13 bind?
Result: binds

Does B14 bind?
Result: binds

These binders were tested against T1, Human full length B7-H3 (assay: FACS, cell surface human B7-H3 (as Example 6)).
Procedure: as §1
Nine anti-B7-H3 chimeric antibodies were conjugated to the Bcl-xL inhibiting (Bcl-xLi) synthon CZ (Example 2.1) using conjugation Method A described below. The resulting ADCs (anti-B7-H3 antibodies conjugated to synthon CZ) were tested for binding to cell surface human B7-H3 by FACS (as described in Example 6) and for cell cytotoxicity in cell lines expressing B7-H3. […] Table 6 provides cell surface binding and cytotoxicity activity of anti-B7-H3 chimera ADCs against breast cancer cell HCC38 expressing human B7-H3.

Which EC50 does the source give for B10 here?
The EC50 was 1.49 nM.

Biological target: T1, Human full length B7-H3
Experiment: FACS (Example 6 method)
Remark: another data set of the same source
Procedure: as §1
(§2) Nine huAb13 variants described in Examples 17 and 18 were generated and tested for binding to B7-H3 by FACS (according to methods described in Example 6).

With B8 as the binder, how does the EC50 read?
Its EC50 is 5.83 nM.

With B9 as the binder, how does the EC50 read?
The EC50 was 5.21 nM.

How did the EC50 turn out when B10 was run?
Its EC50 is 6.27 nM.

These binders were tested against T3, Cynomolgous B7-H3 on cells (assay: FACS (Example 6 method)).
Procedure: as §1, §2

Which EC50 does the source give for B7 here?
The EC50 was 10 nM.

With B8 as the binder, how does the EC50 read?
Its EC50 is 12.9 nM.

B9 was tested. Which EC50 did it give?
Its EC50 is 10.6 nM.

How did the EC50 turn out when B10 was run?
The EC50 was 18.4 nM.

What follows are binders tested against T1, Human full length B7-H3 (assay: cell-based or functional assay).

With B7 as the binder, how does the “EC50 nM H1650 (tumor cell cytotoxicity)” value read?
The value was 0.18 nM.

Which “EC50 nM H1650 (tumor cell cytotoxicity)” value does the source give for B2 here?
The value was 0.4 nM.

What follows are binders tested against T1, Human full length B7-H3 (assay: FACS).

Does B15 bind?
Result: no binding

Does B16 bind?
Result: no binding

Does B17 bind?
Result: no binding

Does B18 bind?
Result: no binding

Does B19 bind?
Result: no binding

Does B20 bind?
Result: no binding
